Tests used:
human α-thrombin (human) [1] = target: human α-thrombin (human) (UniProt P00734); assay: kinetics of thrombin inactivation
human α-thrombin (human) [2] = target: human α-thrombin (human) (UniProt P00734)

| K (TH,HCII), dissociation constant of ternary complex formation with heparin (human α-thrombin (human) [1]) [µM] | second-order rate constant of uncatalyzed thrombin inactivation (no GAG) (human α-thrombin (human) [2]) [M⁻¹ s⁻¹] | K (TDS,HCII), dissociation constant of ternary complex formation with DS (human α-thrombin (human) [1]) [µM] | Substance |
| --- | --- | --- | --- |
| 0.018 | 420 | – | deglycosylated plasma heparin cofactor II (from UniProt P05546 20-499) (natural protein) |
| – | – | 0.022 | native plasma heparin cofactor II (from UniProt P05546 20-499) (natural protein) |

From publication PMC2952836
